Data: patent publication KR20210118351A (dated 2021)
Substitutions are numbered along the chain they refer to.

B1: No. 260 항체 (Full IgG) (antibody, V domains shown)
VH: EVQLVESGGGLVQPGRTLRLSCAASGFTFDDYAMHWVRQPPGKGLEWVSGIDWNSGLIGYADAVKGRFTLSRDNAKNSIFLQMNSLRAEDTALYYCVKDMGSTGGYYGMDVWGQGTTVIVSS
VL: not shown
B2: No. 152 항체 (Full IgG) (antibody, V domains shown)
VH: QITLKESGPSLVKPSQTLTLTCTFSGFSLTTSGMGVGWIRQPPGKALEWLALIDWDDNKYYTTSLKTRLTISKDTSKNQVVLTMTNMDPVDTATYYCARIPGFLRYRNRYYYYGMDVWGQGTTVTVSS
VL: ELVLTQPPSVSAAPGQKVTISCSGRSSNIGNNYVSWYQQLPGTAPKLLIYDNNKRPSGIPDRFSGSKSGTSATLGITGLQTGDEADYYCGTWDSSLSAGVFGGGTQLTVL
B3: No. 284 항체 (Full IgG) (antibody, V domains shown)
VH: QVQLVQSGGGLVQPGGSLRLSCAASGVTVSSNYMSWVRQAPGKGLEWVSVIYSGGSTYYADSVKGRFTISRHNSKNTLYLQMNSLRAEDTAVYYCARGHVDIPYGMDVWGQGTTVTVSS
VL: B2 VL with R25S
B4: No. 217 항체 (Full IgG) (antibody, V domains shown)
VH: EVQLVESGGGVVQPGRSLRLSCAASGFTFSRFAMHWVRQAPGKGLEWVAVVSYDGSNNYYADSVKGRFTISRDNSKNTLYLQMNSLRAEDTAVYYCARGDYYGSGSYYNPSPFFDYWGQGTLVTVSS
VL: not shown
B5: No. 218 항체 (Full IgG) (antibody, V domains shown)
VH: B4 VH with E1Q, E6Q, R31S, V51I, Y53F, N58K, R67Q
VL: ELELTQPPSVSGTPGQRVSISCSGSTSNIGSNPVNWFQQLPGTAPKLLIYSNNQRPSGVPNRFSGSKSGTSASLAISGLQSDDEADYYCAAWDDSLNGWVFGGGTKVTVL
B6: No. 230 항체 (Full IgG) (antibody, V domains shown)
VH: B4 VH with E1Q, E6Q, R31N, V51I, N58K, S75F
VL: not shown
B7: No. 270 항체 (Full IgG) (antibody, V domains shown)
VH: QVQLVQSGGGLVQPGGSLRLSCAASGLTVSSNYMTWVRQAPGKGLEWVSVIYSGGSTFYADSVKGRFTISRDNSKNTLYLQMNSLRAEDTAVYYCARDLVVYGMDVWGQGTTVTVSS
VL: ELVLTQSPGTLSLSPGERATLSCRASQSVSSYLAWYQQKPGQAPRLLIYDASNRATGIPARFSGSGSGTDFTLTISSLEPEDFAVYYCQQYGSSPLTFGGGTKVDIK
B8: No. 274 항체 (Full IgG) (antibody, V domains shown)
VH: B7 VH with Q1E, Q6E, L27F
VL: ELELTQPPSVSGAPGQRVTISCTGSSSNIGAGYDVHWYQQLPGTAPKLLIYGNSNRPSGVPDRFSGSKSGTSASLAITGLQAEDEADYYCQSYDSSLGVVFGGGTKVTVL
B9: No. 275 항체 (Full IgG) (antibody, V domains shown)
VH: B7 VH with Q1E, Q6E, L27F
VL: ELVLTQPPSVSVAPGKTARITCGGNNIGSNTVNWYQQLPGTAPKLLIYSNNLRPSGVPDRFSGSKSGTSASLAISGLQSEDEADYYCAAWDDSLNGPVFGGGTKVTVL
B10: No. 271 항체 (Full IgG) (antibody, V domains shown)
VH: B7 VH with Q1E, Q6E, L27F
VL: ELELTQPPSASGTPGQRVTISCSGSSSNIGSNTVNWYQQLPGTAPKLLIYSNNQRPSGVPDRFSGSKSGTSASLAISGLQSEDEADYYCSSYAGSNNLVFGGGTKLTVL
B11: No. 281 항체 (Full IgG) (antibody, V domains shown)
VH: B7 VH with L27I, T35S, F58N, V100I
VL: ELVLTQPPSVSGAPGQRVTISCTGSSSNIGAGYDVHWYQQLPGTAPKLLIYGNSNRPSGVPDRFSGSKSGTSASLAITGLQAEDEADYYCAAWDDSLSGWVFGGGTKVTVL

target: T1, S protein of SARS-CoV-2 BetaCoV/Korea/KCDC03/2020 (614D, S형) (SARS-CoV-2, UniProt P0DTC2 14-1273); experiment: cell-based or functional assay

Row | Binder | IC50, PRNT
1 | B1 | 0.401 µg/mL
2 | B2 | 0.0062 µg/mL
3 | B3 | 0.702 µg/mL
4 | B4 | 5.95 µg/mL
5 | B5 | 0.562 µg/mL
6 | B6 | 0.432 µg/mL
7 | B7 | 0.152 µg/mL
8 | B8 | 0.301 µg/mL
9 | B9 | 0.272 µg/mL
10 | B10 | 1.68 µg/mL
11 | B11 | 1.43 µg/mL

target: T1, S protein of SARS-CoV-2 …; experiment: cell-based or functional assay; remark: another data set of the same source

Row | Binder | IC50, PRNT
12 | B1 | > 1 µg/mL

target: S protein of SARS-CoV-2 hCoV-19/South Korea/KUMC17/2020 (614G) (SARS-CoV-2, UniProt P0DTC2 14-1273); experiment: cell-based or functional assay

Row | Binder | IC50, PRNT
13 | B1 | > 1 µg/mL
